The labels stand for the following.
B1: Myc-Mal-TIR wild type (TIR domain of human MyD88 adaptor-like protein, residues 79-221, double-tagged with His6 and Myc) [human] / GST-Mal-TIR (TIR domain of human Mal, residues 79-221, GST fusion) [human] (parent)
chain 1: SSRWSKDYDVCVCHSEEDLVAAQDLVSYLEGSTASLRCFLQLRDATPGGAIVSELCQALSSSHCRVLLITPGFLQDPWCKYQMLQALTEAPGAEGCTIPLLSGLSRAAYPPELRFMYYVDGRGPDGGFRQVKEAVMRYLQTLS
chain 2: B1 chain 1

The variants in this test derive from B1. The test can be described thus: GST pull-down, quantified Western blot. The settings on record: with GST-Mal-TIR (TIR domain of human Mal, residues 79-221, GST fusion) [human]; n = 3 separate experiments; parent: 1; read off a plot.
On to chain 1 Y81A, for which the ratio to parent is 0.41.
As for chain 1 R114A, the figure is 0.91; as for chain 1 D9A, 1.2.
To chain 1 W78A belongs 0.6.

The values are drawn from article PMC3317499.
